Results from article PMC5177622, “Multivalent Histone and DNA Engagement by a PHD/BRD/PWWP Triple Reader Cassette Recruits ZMYND8 to K14ac-Rich Chromatin” (Cell Reports, 2016).

Key:
histone H3 K36me3 (m36) = test: anti-FLAG immunoprecipitation and western blot, quantified; settings: HEK293 cells transiently transfected; three biological replicates; anti-H3K36me3 blot; parent: est. 1.0; read off a plot
histone H3 K36me (m36) = test: as above; settings: HEK293 cells transiently transfected; three biological replicates; anti-H3K36me blot; parent: est. 1.0; read off a plot
histone H3 K36me2 (m36) = test: as above; settings: HEK293 cells transiently transfected; three biological replicates; anti-H3K36me2 blot; parent: est. 1.0; read off a plot
histone H3 K9ac (m36) = test: as above; settings: HEK293 cells transiently transfected; three biological replicates; anti-H3K9ac blot; parent: est. 1.0; read off a plot
[1] = target: ZMYND8 PHD/BRD/PWWP triple reader cassette (Q83-S406), wild type (human); test: ITC; ITC200; peptides titrated into a solution of ZMYND8; single-site binding model; n = 3

**Q.** With “3×FLAG-ZMYND8 full length, wild type (from UniProt Q9ULU4-13) F288A; W291A” as the substance, how does the ratio to parent (histone H3 K36me3 (m36)) read?
**A.** The ratio to parent was 0.39.

**Q.** And the ratio to parent (histone H3 K36me (m36))?
**A.** Its ratio to parent is 0.28.

**Q.** What about the ratio to parent (histone H3 K36me2 (m36)) of the same substance?
**A.** The ratio to parent was 0.08.

**Q.** Which ratio to parent (histone H3 K9ac (m36)) does the source give for “3×FLAG-ZMYND8 full length, wild type (from UniProt Q9ULU4-13) N228F” here?
**A.** Its ratio to parent is 0.19.

**Q.** Which Kd [1] does the source give for “Histone H3.3 40-aa recombinant peptide, K14ac (from UniProt P84243 2-41)” here?
**A.** Its Kd is 6.8 µM.
